Experiment [1] addresses HIV-1 Gag matrix domain (MA) (HIV-1). Put plainly: crystal structure; MA co-crystallised with IP6; three crystal forms: cryogenic MA_IP6_R32 (2.40 Å), cryogenic MA_IP6_C2 (2.72 Å, six chains in the asymmetric unit), ambient-temperature SFX MA_IP6_SFX_P1 (3.5 Å); PEG 3350 or PEG 4000/2-propanol, 100 mM MES pH 6.0-6.5.
Experiment [2] has the same target. The experiment is described as above. The source holds these as a separate data set.

Read-outs that look alike come from different tables or passages of the source.

The stoichiometry N is the number of molecules, sites or subunits per partner or assembly. Consider “HIV-1 Gag matrix domain (MA) (domain or fragment)”, for which the figures for the stoichiometry N in experiment [1] and in experiment [2] were 6 and 3, respectively.
